For assay [1], the target named is mutant outer-arm dynein (OAD) of the Chlamydomonas mutant 214 (oda6E279K), carrying IC2 E279K (Chlamydomonas reinhardtii (endogenous in flagellar axonemes)) (UniProt Q39610).
The target of assay [2] is wild-type outer-arm dynein (OAD) of Chlamydomonas (Chlamydomonas reinhardtii (endogenous in flagellar axonemes)) (UniProt Q39610).

In assay [1], “mutant outer-arm dynein (OAD) of the Chlamydomonas mutant 214 (oda6E279K), carrying IC2 E279K (from UniProt Q39610 1-4499; Q39565 1-4568; Q39575 1-4485; Q39578 1-683; P27766 1-567) (complex)” displayed a microtubule sliding speed in microtubule bundles formed with OAD, on perfusion with 1 mM ATP of 4.3 μm/sec.
Consider “wild-type outer-arm dynein (OAD) of Chlamydomonas (from UniProt Q39610 1-4499; Q39565 1-4568; Q39575 1-4485; Q39578 1-683; P27766 1-567) (complex)”, for which the microtubule sliding speed in microtubule bundles formed with OAD, on perfusion with 1 mM ATP in assay [2] was determined as 35.3 μm/sec.

Source of the values: paper PMC11496786.
